Reference: US10100120B2, “Antibody which specifically binds to human CRTH2” (KYOWA HAKKO KIRIN CO., LTD, priority 2015, dated 2018)
Substitutions are numbered along the chain they refer to. One block for each molecule: values may come before it.

Legend:
human CRTH2 = target: T1, human CRTH2 (Homo sapiens, UniProt Q9Y5Y4); assay: Reactivity in presence of ligand DKPGD2, human CRTH2-expressing 293 EBNA cells; assay type: binding; conditions: DKPGD2 10 μM; antibody 0.3, 1 and 3 μg/mL; relative to absence of DKPGD2; FIG. 13
T1 construct: expressed in transfected cells
T1 sequence (Q9Y5Y4 1-395): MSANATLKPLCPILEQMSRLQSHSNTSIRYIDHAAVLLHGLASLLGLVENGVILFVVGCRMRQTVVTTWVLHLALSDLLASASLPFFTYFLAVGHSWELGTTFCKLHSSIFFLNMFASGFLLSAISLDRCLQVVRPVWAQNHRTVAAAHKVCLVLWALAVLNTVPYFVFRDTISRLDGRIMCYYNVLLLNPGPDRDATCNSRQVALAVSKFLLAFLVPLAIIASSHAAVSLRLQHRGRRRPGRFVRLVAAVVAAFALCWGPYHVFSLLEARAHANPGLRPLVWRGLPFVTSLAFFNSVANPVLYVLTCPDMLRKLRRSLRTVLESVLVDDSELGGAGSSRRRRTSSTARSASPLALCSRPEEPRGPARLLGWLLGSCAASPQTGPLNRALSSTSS
Method: Human CRTH2-expressing 293 EBNA cells were established by introducing the human CRTH2 gene expression pAMoh vector prepared in Example 1-(1)-(ii) into 293 EBNA cells (Invitrogen) using Fugene 6 (Promega Corporation) and selecting drug-resistant cells by culture medium formed of 10% FBS, 0.25 mg/mL of G418 (NACALAI TESQUE, Inc.), […] (NACALAI TESQUE, Inc.), and 300 μg/mL of hygromycin B (Wako Pure Chemical Industries) in DMEM.
The human CRTH2-expressing 293 EBNA cells were peeled using 0.02% EDTA solution (NACALAI TESQUE, Inc.), washed with PBS, and suspended with the above-described culture medium. […]
After the cells were washed 5 times with SM, 10 μg/mL of goat anti-Human IgG Alexa 647 (Molecular Probes) diluted with SM was added to wells to which LV0HV1, hu19A2 v52, hu8B1 v1, ch3C12, or ch31A5 was added, 10 μg/mL of goat anti-Rat IgG Alexa 647 (Molecular Probes) diluted with SM was added to wells to which BM16 was added, and 10 μg/mL of goat anti-Mouse IgG Alexa 647 (Molecular Probes) diluted with SM was added to wells to which 301108 was added at a final concentration of 10 μg/mL to cause a reaction at 4° C. for 40 minutes. After the cells were washed again, the cells were suspended with SM, and the fluorescent intensity was analyzed by flow cytometry (BD Biosciences, FACS CantoII).

[1] = test system: differentiation-induced Th1 cells; assay: Reactivity against differentiation-induced Th1 cells; assay type: binding, human; conditions: antibody 10 μg/mL, 4° C., 1 hour; FIG. 15
Method: Healthy person-derived frozen PBMC (Allcells, LLC.) was washed once with 20 mL of PBMC culture medium containing 50 μL of DNase I recombinant, RNase-free (Roche Diagnostics K.K.), suspended with 20 mL of PBMC culture medium containing 50 μL of DNase I recombinant, RNase-free, and allowed to stand in a 5% CO2 incubator at 37° C. for 2 hours.
Thereafter, the cells were washed twice with the MACS buffer described in Example 11 and naive CD4-positive T-cells were isolated by a negative selection method using Naive CD4^+ T Cell Isolation Kit II human (Miltenyi Biotec) according to the attached instructions. The negative selection was performed twice in order to improve purity of the naive CD4-positive T-cells.
According to the method described in J Immunol, 2002. 169(5): p. […]
After the cells were washed, 10 μg/mL of CELL LAB Mouse Anti-Rat Kappa (kappa light chain specific) FITC (Beckman Coulter Inc.) diluted with SM was added to wells to which Lym2 antibody or BM16 was added, 10 μg/mL of CELL LAB Goat Anti-Mouse IgG (γ chain specific) Fluorescein (FITC) Conjugate (Beckman Coulter Inc.) diluted with SM was added to wells to which 301108 was added at a final concentration of 10 μg/mL to cause a reaction at 4° C. for 1 hour. After the cells were washed again, the cells were suspended with SM, and the fluorescent intensity was analyzed by flow cytometry (BD Biosciences, FACS CantoII).

binding to human CRTH2-expressing cells in the presence of DKPGD2 (human CRTH2): almost not decreased
B1: LV0HV1: humanized Lym2 antibody, VL LV0 (SEQ ID NO: 33), VH HV1 (SEQ ID NO: 51) (antibody, V domains shown)
VH: EVQLVESGGGVVQPGRSLRLSCAASGFTFSNYYMAWVRQAPGKGLEWVATISYDGSSTYYRDSVKGRFTISRDNAKNSLYLQMNSLRAEDTATYYCARHRGYYYSGAGYFDYWGQGTMVTVSS
VL: DIVMTQTPLSLPVTPGESASISCRSSQSLEYSDGYTYLEWYLQKPGQSPQVLIYGVSNRFSGVPDRFSGSGSGTDFTLKISRVEAEDVGVYYCFQATHDPLTFGQGTKLEIK

B2: Lym2 antibody: rat anti-human CRTH2 monoclonal antibody from hybridoma Lym2, rat IgG2b; VH SEQ ID NO: 17, VL SEQ ID NO: 19 (antibody, listed as Rattus norvegicus, V domains shown)
VH: B1 VH with V11L, L18M, R19K, G42K, N77S, S78T, N84D, A88S, T117V
VL: DVVLTQTPVSLSVTLGDQASISCRSSQSLEYSDGYTYLEWYLQKPGQSPQVLIYGVSNRFSGVPDRFIGSGSGTDFTLKISRVEPEDLGVYYCFQATHDPLTFGSGTKLEIK
reactivity against the differentiation-induced Th1 [1]: did not exhibit reactivity
